Here are results for 2 molecules from publication PMC3241645 (Nucleic Acids Research, 2011).

The target in series [1] is Helicobacter pylori GluRS2 (non-canonical glutamyl-tRNA synthetase 2) (Helicobacter pylori) (UniProt O25360). In words: nanopore optical interferometry.
The target is the same in series [2]. Description: dynamic light scattering.
Series [3] deals with the molecule itself. Description: nanopore optical interferometry.

One may read the stoichiometry N as the number of molecules, sites or subunits per partner or assembly.

In series [1], “Helicobacter pylori GatCAB (tRNA-dependent amidotransferase) (complex)” showed an average optical path difference at plateau, 0.5 µM GatCAB of 0.6 nm; an average optical path difference at plateau, 2 µM GatCAB of 2.2 nm; an average optical path difference at plateau, 5 µM GatCAB of 5.4 nm; an average optical path difference at plateau, 10 µM GatCAB of 10.4 nm. Moreover, the average optical path difference at plateau, 19 µM GatCAB in series [1] worked out at 16.2 nm. The molecule also had a stoichiometry N in series [2] of 1.

B1: Helicobacter pylori GluRS2 (non-canonical glutamyl-tRNA synthetase 2) (enzyme, UniProt O25360 1-439, looked up)
chain: MLRFAPSPTGDMHIGNLRAAIFNYIVAKQQYKPFLIRIEDTDKERNIEGKDQEILEILKLMGISWDKLVYQSHNIDYHREMAEKLLKENKAFYCYASAEFLEREKEKAKNEKRPFRYSDEWATLEKDKHHAPVVRLKAPNHAVSFNDAIKKEVKFEPDELDSFVLLRQDKSPTYNFACACDDLLYKISLIIRGEDHVSNTPKQILIQQALGSNDPIVYAHLPIILDEVSGKKMSKRDEASSVKWLLNQGFLPVAIANYLITIGNKVPKEVFSLDEAIEWFSLENLSSSPAHFNLKYLKHLNHEHLKLLDDDKLLELTSIKDKNLLGLLRLFIEECGTLLELREKISLFLEPKDIVKTYENEDFKERCLALFNALTSMDFQAYKDFESFKKEAMRLSQLKGKDFFKPLRILLTGNSHGVELPLIFPYIQSHHQEVLRLKA
As to B1, the binding result in series [3] is “binds”.
